Target: GST-TIP60 (human, UniProt Q92993 1-513)
Test: pull-down

Sequence of GST-TIP60 (Q92993 whole entry): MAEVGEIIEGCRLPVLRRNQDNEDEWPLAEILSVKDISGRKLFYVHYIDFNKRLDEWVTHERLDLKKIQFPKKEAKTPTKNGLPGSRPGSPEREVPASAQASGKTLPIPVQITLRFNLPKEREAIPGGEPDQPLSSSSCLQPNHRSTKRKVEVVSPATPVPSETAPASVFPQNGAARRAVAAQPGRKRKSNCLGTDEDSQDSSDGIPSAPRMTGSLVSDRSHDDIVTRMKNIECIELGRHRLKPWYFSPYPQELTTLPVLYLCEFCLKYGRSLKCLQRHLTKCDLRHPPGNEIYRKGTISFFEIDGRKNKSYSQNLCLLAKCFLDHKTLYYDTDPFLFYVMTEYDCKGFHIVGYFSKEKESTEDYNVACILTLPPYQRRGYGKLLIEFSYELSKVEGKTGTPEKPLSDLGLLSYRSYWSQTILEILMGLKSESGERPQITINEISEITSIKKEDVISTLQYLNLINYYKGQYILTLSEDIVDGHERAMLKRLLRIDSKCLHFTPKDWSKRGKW

binding result: binds
B1: MBP-Nup62-CT (domain or fragment, human, UniProt P37198 329-522, looked up)
chain: TYAQLESLINKWSLELEDQERHFLQQATQVNAWDRTLIENGEKITSLHREVEKVKLDQKRLDQELDFILSQQKELEDLLSPLEELVKEQSGTIYLQHADEEREKTYKLAENIDAQLKRMAQDLKDIIEHLNTSGAPADTSDPLQQICKILNAHMDSLQWIDQNSALLQRKVEEVTKVCEGRRKEQERSFRITFD

— article PMC9926331 (Journal of Molecular Cell Biology, 2022)
